Biological target: T1, Protein L (recombinant protein L immobilized on a matrix; HiTrap Protein L, GE Healthcare) (Finegoldia magna)
T1 construct: also called Protein L resin; Finegoldia magna Protein L
T1 chain: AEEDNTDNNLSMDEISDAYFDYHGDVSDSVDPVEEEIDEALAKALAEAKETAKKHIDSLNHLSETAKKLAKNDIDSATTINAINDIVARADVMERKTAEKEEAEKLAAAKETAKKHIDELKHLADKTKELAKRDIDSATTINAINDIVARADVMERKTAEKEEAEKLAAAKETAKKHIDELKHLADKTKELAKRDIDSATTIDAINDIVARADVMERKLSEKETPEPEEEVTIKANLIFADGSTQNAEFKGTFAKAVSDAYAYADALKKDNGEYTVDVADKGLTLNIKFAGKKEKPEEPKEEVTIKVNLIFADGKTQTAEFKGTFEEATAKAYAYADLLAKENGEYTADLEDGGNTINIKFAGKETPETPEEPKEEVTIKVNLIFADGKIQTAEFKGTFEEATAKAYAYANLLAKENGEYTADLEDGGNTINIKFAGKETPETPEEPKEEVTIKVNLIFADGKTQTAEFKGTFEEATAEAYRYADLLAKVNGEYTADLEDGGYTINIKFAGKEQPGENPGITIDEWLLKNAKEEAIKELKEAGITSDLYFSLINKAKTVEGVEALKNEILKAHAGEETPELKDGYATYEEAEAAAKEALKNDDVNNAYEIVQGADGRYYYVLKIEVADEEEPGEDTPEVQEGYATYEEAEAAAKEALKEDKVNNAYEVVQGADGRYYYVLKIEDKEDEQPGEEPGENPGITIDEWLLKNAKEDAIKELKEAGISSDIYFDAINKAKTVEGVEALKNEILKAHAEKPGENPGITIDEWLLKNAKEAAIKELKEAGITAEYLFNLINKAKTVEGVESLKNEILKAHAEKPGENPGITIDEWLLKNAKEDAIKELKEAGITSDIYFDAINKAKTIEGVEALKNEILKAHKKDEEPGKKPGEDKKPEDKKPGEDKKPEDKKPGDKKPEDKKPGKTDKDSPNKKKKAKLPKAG
Assay: HiTrap Protein L (5 mL) chromatography of purified antibody, step elution at pH 3.5, 3.0 and 2.5, A280 trace
Method: 10 mL of the supernatant was loaded onto the HiTrap Protein L column. […] The column was washed with PBS and specifically bound material was eluted sequentially with 0.1 M glycine-HCl pH 3.5, 3.0 and 2.5 and neutralized with a few drops of 2M Tris pH 9.0. The column was washed using 15 mM sodium hydroxide.

binding result: no binding
B1: IgG1-2F8-F405L-S12P (antibody, name in EU numbering)
heavy: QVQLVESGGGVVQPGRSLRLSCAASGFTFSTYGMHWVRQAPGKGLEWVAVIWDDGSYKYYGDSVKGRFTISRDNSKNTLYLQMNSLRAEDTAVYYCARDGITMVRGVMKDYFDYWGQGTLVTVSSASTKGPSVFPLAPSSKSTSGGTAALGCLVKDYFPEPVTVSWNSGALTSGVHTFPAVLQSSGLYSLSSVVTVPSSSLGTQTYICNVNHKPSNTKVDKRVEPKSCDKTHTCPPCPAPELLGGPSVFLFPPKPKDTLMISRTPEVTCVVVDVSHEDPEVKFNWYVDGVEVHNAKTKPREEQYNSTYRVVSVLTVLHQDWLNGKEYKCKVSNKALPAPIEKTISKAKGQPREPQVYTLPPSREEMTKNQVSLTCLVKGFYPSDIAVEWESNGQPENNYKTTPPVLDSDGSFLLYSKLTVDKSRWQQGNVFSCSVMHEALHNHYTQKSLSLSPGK
light: AIQLTQSPSSLPASVGDRVTITCRASQDISSALVWYQQKPGKAPKLLIYDASSLESGVPSRFSGSESGTDFTLTISSLQPEDFATYYCQQFNSYPLTFGGGTKVEIKRTVAAPSVFIFPPSDEQLKSGTASVVCLLNNFYPREAKVQWKVDNALQSGNSQESVTEQDSKDSTYSLSSTLTLSKADYEKHKVYACEVTHQGLSSPVTKSFNRGEC
notes: IgG1m(f), kappa; also called IgG-2F8-F405L-S12P; IgG1-2F8-S12P

Source: patent US20210269509A1 (Genmab, published 2021)
